Here are results for 37 variants from the supplement of paper PMC7125110.

± gives the standard error. This sample holds only a part of the variants without activity.

B1: glmS ribozyme (parent)
chain: AUAAAAGCGCCAGAACUACAGAAAUGUAGUUGACGAGGAGGAGGUUUAUCGAAUUUUCGGCGGAUGCCUCCAAA

The series covers variants of B1. Kind of series: self-cleavage kobs at 10000 uM GlcN6P; higher = faster cleavage; RNA array. Particulars: with glucosamine-6-phosphate. The procedure, abridged:
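Barcoded ribozyme variants were transcribed in situ on sequenced MiSeq chips by E. coli RNA polymerase. At 37 °C, a hybridised Cy3 probe tracked them while glucosamine-6-phosphate (40 μM to 10 mM) in HEPES/KCl/Mg(OAc)2 buffer flowed in and tiles were imaged over ~14 h. Per-tile medians of signals normalised to baseline and to non-cleaving reference variants were fit to one- or two-exponential decays, giving kobs. kcat and KM came from weighted Michaelis–Menten fits across concentrations.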
As to AUAAAAGUGCCAGAACUACAGAAAUGUAGUCGACGAGGAGGAGGUUUAUCGUAUUUUCGGCGGAUGCCUCCAAA [C8U U31C A52U], the “self-cleavage kobs at 10000 uM GlcN6P” value is below 1e-05 s⁻¹.

AUAAAAACGCCAGAAGUACAGAAAUGUAGUUGACGAGGAGGAGGUUUAUCGUAUUUUCGGAGGAUGCCUCCAAA [G7A C16G A52U C61A]: the “self-cleavage kobs at 10000 uM GlcN6P” value was below 1e-05 s⁻¹.

As for AUAAAUGCACCAGAACUACAGAAAUGUACUUGACGAGGAGGAGGUUUAUUGAAUUUUCGGCGGAUGCCGCCAAA [A6U G9A G29C C50U U69G], the “self-cleavage kobs at 10000 uM GlcN6P” value worked out at 9.44e-05 ± 3.8e-05 s⁻¹.

Turning to AUAAAAGCGCCAGAACUACAGAAAUGUAGUUGACGAGGGGGAGGUUUAUCGAAUUUUCGCCGGAUGCCUUCAAA [A39G G60C C70U], the “self-cleavage kobs at 10000 uM GlcN6P” value is below 1e-05 s⁻¹.

For AUAAAAGCGCCAGAACUACAGAAAUGUAGUUGACGAGGAGGAGGAUUAUCGAAAUUUCGGCGGAUGCCUACAAA [U45A U54A C70A], the “self-cleavage kobs at 10000 uM GlcN6P” value worked out at 8.25e-05 ± 1.9e-05 s⁻¹.

As to AUAAAAGCGCCAGAAGUACAGAAAUGUAGUUGACGAGGAGGAGGUUUAUGGCAUAUUCGGCGGAUGCCUUCAAA [C16G C50G A52C U55A C70U], the “self-cleavage kobs at 10000 uM GlcN6P” value came out at 4.88e-05 ± 1.9e-05 s⁻¹.

Regarding AUAAAAGCGCCAGAACUACAGAAAUGUAGUUGACGAGGAGGAGGUUAAUCGAUUUUUAGGCGGAUGCCUCCAAA [U47A A53U C58A], the “self-cleavage kobs at 10000 uM GlcN6P” value worked out at 0.000151 ± 3e-05 s⁻¹.

On to AUAAAAGCGCCAGCACUACAGAAAUGUAGUUGACGAGGAGGAGGUUUAUCGAAUGUUCGGCGGAUGGCUCCAAA [A14C U55G C67G], for which the “self-cleavage kobs at 10000 uM GlcN6P” value came to 0.000215 ± 3.8e-05 s⁻¹.

Regarding AUAAAAACGCCAGAACUACAGAAAUGUAGUUGACUAGGAGGAGGUUUAUCGAAUUUACGGCGGAUGCCUCCAAA [G7A G35U U57A], the “self-cleavage kobs at 10000 uM GlcN6P” value is below 1e-05 s⁻¹.

Consider AUAAAAGCGCCAGAACUACAGAAAUGUAGUUGACGUGGCGGAGGUUUAUCGAAUUUUCGGCGGACGCCUCCAAA [A36U A39C U65C], for which the “self-cleavage kobs at 10000 uM GlcN6P” value is below 1e-05 s⁻¹.

As for AUAAACGCGCCAGAACUACAGAAAUGUAGUUGACGAGGAGGAGGUUUAUGGAAUUUUCGGCGGUUGCCUCCAAA [A6C C50G A64U], the “self-cleavage kobs at 10000 uM GlcN6P” value came out at 3.95e-05 ± 2e-05 s⁻¹.

Consider AUAAAAGCGCCAUAACUACAGAAAUGUAGUUGACGAGGGGGAGGUUUAUCGAAUUUUCGGCGCAUGCCUCCAAA [G13U A39G G63C], for which the “self-cleavage kobs at 10000 uM GlcN6P” value is below 1e-05 s⁻¹.

Regarding AUAAAAGCACCAGAACUACAGAAAUGUAGUUGACGAGGAGGAGGGUUAUCGAAUUUUCGGCGGAUGCUUCCAAA [G9A U45G C68U], the “self-cleavage kobs at 10000 uM GlcN6P” value is below 1e-05 s⁻¹.

On to AUAAAAGCGCCAUAAUUACAGAAAUGUAGUAGUCCAGGAGGAGGUUUAUCGAAUUUUCGGCGGAUGCCUCCAAA [G13U C16U U31A A33U G35C], for which the “self-cleavage kobs at 10000 uM GlcN6P” value is below 1e-05 s⁻¹.

Take AUAAAAGCGCCAGAACUACAGAAAUGUAGUUGCCGAGGAGGAGGUUUAUAGAAUUUUCGGCGGAUGGGUCCAAA [A33C C50A C67G C68G]: the “self-cleavage kobs at 10000 uM GlcN6P” value came to 7.88e-05 ± 2.1e-05 s⁻¹.

In the case of AUAAAAGCGCCAGAACUACAGAAAUGUAGGUGACGAGGCGGAGGUUUAUCGAAUUAUCGGCGGAUGCCUGCAAA [U30G A39C U56A C70G], the “self-cleavage kobs at 10000 uM GlcN6P” value was below 1e-05 s⁻¹.

Regarding AUAAAAGCGCCAGAACUACAGAAAUGUAGUUGACGAGGAGGAAGUUUAUCUAAUUUUCGGCGCAUGCCUCCAAA [G43A G51U G63C], the “self-cleavage kobs at 10000 uM GlcN6P” value was below 1e-05 s⁻¹.

Regarding AUAAAAGCGCCAGACCUACAGAAAUGUAGUUGACGAGGAGUAGGUUUAUCGAAUUUUCGGCGGAUACCUCCAAA [A15C G41U G66A], the “self-cleavage kobs at 10000 uM GlcN6P” value was determined as 0.000194 ± 4.9e-05 s⁻¹.

On to AUAAAAGGGCCAGAGCUACAGAAAUGUAGUUGACGACGAGGAGGUUUAGCGAAUUUUCGGCGGAUGCCUCCAAA [C8G A15G G37C U49G], for which the “self-cleavage kobs at 10000 uM GlcN6P” value was below 1e-05 s⁻¹.

Take AUAAAAGCGCCAGAACUACAGAAAUGUAGUUGACGAGGAGGAGGUUAAUCGAAUUUUCGGCGGAGUCCUCCAAA [U47A U65G G66U]: the “self-cleavage kobs at 10000 uM GlcN6P” value came to 0.00262 ± 0.00053 s⁻¹.

For AUAAAAGCGCCAGAACUACAGAAAUGUAGUUAACGAGGAGGGGGUUUAUCGAGUUUUCGGCGGAUGCCUCCAAA [G32A A42G A53G], the “self-cleavage kobs at 10000 uM GlcN6P” value was 0.00295 ± 0.00072 s⁻¹.

With AUAAAUGCGCCAGAACUACAGAAAUGUAGUUGACAAGGAGGAGGUGUAUCUAAUUUUCGGAGGAUGCCUCCAAA [A6U G35A U46G G51U C61A], the “self-cleavage kobs at 10000 uM GlcN6P” value is below 1e-05 s⁻¹.

On to AUAAAAGCGCCAGAGCUACAGAAAUGUAGUUUACGAGGAGGAUGUUUAUCGAAUUUUCGGGGUGUACCUCCAAA [A15G G32U G43U C61G G63U A64G G66A], for which the “self-cleavage kobs at 10000 uM GlcN6P” value is below 1e-05 s⁻¹.

Take AUAAAAGUGCCAGAACUACAGAAAUGUAGUUGACGAGGAGGAGGUUUAUAUUAUUUUCGGCGGAUGCCUCCAAA [C8U C50A G51U A52U]: the “self-cleavage kobs at 10000 uM GlcN6P” value is below 1e-05 s⁻¹.

With AUAAAAGCGCCAGAACUACAGAAAUGUAGUUGACGAGUCGGAGAUUUAUCGAAUUUUCGGCGGAUGCCUCCAAA [G38U A39C G44A], the “self-cleavage kobs at 10000 uM GlcN6P” value was below 1e-05 s⁻¹.

With AUAAAAGGGCCAGAACUACAGAAAUGUAGUUGAUGAGGAGGAUGUUUAUCGAAUUUUCGGCUGAUGCCUCUAAA [C8G C34U G43U G62U C71U], the “self-cleavage kobs at 10000 uM GlcN6P” value is below 1e-05 s⁻¹.

Turning to AUAAAAACGCCAGAACUACAGAAAUGUAGUUGACCAGGAGUAGGUUUAUCGAAUUUUCGGCGGAUGCCUCCAAA [G7A G35C G41U], the “self-cleavage kobs at 10000 uM GlcN6P” value was below 1e-05 s⁻¹.

As to AUAAAAGCGCCAGAACUACAGAAAUGUAGUAAACGAGGAGGGGGUUUAUCGAAUUUUCGGCGGAUGCCUCCAAA [U31A G32A A42G], the “self-cleavage kobs at 10000 uM GlcN6P” value came out at 0.000766 ± 0.00025 s⁻¹.

As for AUAAAAGCGCCAGAACUACAGAAAUGUAGUUGACUAGGAGGAGGUUCAUCUAAUUUUCGGCGGAUGCCUCCAAA [G35U U47C G51U], the “self-cleavage kobs at 10000 uM GlcN6P” value was below 1e-05 s⁻¹.

With AUAAAAGCGCCAGUACUACAGAAAUGUAGUUGACGAGGAGGUGGUUUAUCGAAUUUCCGGCGGAUGCCUCCAAA [A14U A42U U57C], the “self-cleavage kobs at 10000 uM GlcN6P” value is below 1e-05 s⁻¹.

Regarding AUAAAGGCGCCCGAACUACAGAAAUGUAGUUGGCGAGGAGGAGGAUUAUCGAAUUUUCGGCUGAUGCCUCCAAA [A6G A12C A33G U45A G62U], the “self-cleavage kobs at 10000 uM GlcN6P” value was below 1e-05 s⁻¹.

For AUAAAAGCGCCAGAACUACAGAAAUGUAGUUGACGUGGAGGAGGUUUAUCGUAUUUUCGGCGGAGGCCCCCAAA [A36U A52U U65G U69C], the “self-cleavage kobs at 10000 uM GlcN6P” value was below 1e-05 s⁻¹.

In the case of AUAAAAGCGCCAGAACUACAGAAAUGUAGUUGACGAGGAGGAGGUUUAUGGAACUUUCGGCGGAUGCCUCUAAA [C50G U54C C71U], the “self-cleavage kobs at 10000 uM GlcN6P” value amounted to 4.14e-05 ± 1.5e-05 s⁻¹.

Regarding AUAAAAACGCCAGAACUACAGAAAUGUAGGUGACGAGGAGAAGGUUUAUCGAAUUUUCGGCGGAUGCCUACAAA [G7A U30G G41A C70A], the “self-cleavage kobs at 10000 uM GlcN6P” value was below 1e-05 s⁻¹.

Consider AUAAAAGCGCCAGACCUACAGAAAUGUAGUUGACGAGGAGGGGGUUGAUCGAGUUUUCGGCGGAUGCCUCCAAA [A15C A42G U47G A53G], for which the “self-cleavage kobs at 10000 uM GlcN6P” value turned out to be 0.000696 ± 9.1e-05 s⁻¹.

On to AUAAAAGAGCCAGAACUACAGAAAUGUAGUUGACCAGGAGGAGGUUUAUCGAUUUUUCGGCGGAUGCCUCCAAA [C8A G35C A53U], for which the “self-cleavage kobs at 10000 uM GlcN6P” value is below 1e-05 s⁻¹.

On to AUAAAUGCGCCAGAACUACAGAAAUGUAGUUGACGAGGAGGAGGUUUAUCGAAUUUUCAGCGGAUGCCGCCAAA [A6U G59A U69G], for which the “self-cleavage kobs at 10000 uM GlcN6P” value is below 1e-05 s⁻¹.
